experiment: soluble on expression in E. coli; label from the status in PepcDB or PDB records

Row | Sequence | soluble on expression in E. coli
1 | MDVLSLLRVFGRRRRGLRDLEVSEPEFGDRPEYLEEYVRRFTSETGREEPELVEKIPSSMKNAREFNVIYPVGFGIFIHAYNDPLSESGYNKYVVVEPPRPPEDLVRLIDYKIALVLSEEDAPRSSEEKKRILLAALDKVVAVTSSERIAGGNGGNGSWQYAVKRGRIVIPERYYNYLKYHFIREKVGVGPLEPFLRDPYLEDISCNGVGPVYVVHKMFRSLESSVRFETEGELDDFILKLGEKIGKPISHARPVVDATLPDGSRINIVFGSDVSLKGSNFTIRKVSKIPISVTQLIKWGTFDARIAAYMWMMLEEGMSVFICGETASGKTTSLNAISVFIRPDAKIVTIEDTAEVVLPHPNWTRELTRNTGKPETSVTMFDLLRAALRQRPNYIIVGEIRGAEGNIAFQAMQTGHPVMATFHAANLSRLLQRLTNHPINVPKTNIDSLNIAWFQSAVHVKGFPARRVLEIDEIIGYDPSSGAIAAVPSFTWDPVRDKFIFSGRGASYLLEEKIATMKGIPRRELSIIYEELELRRRFLQTLVDKNILDYFDVYKAIVRAYNIGVEEALKRLERDELLS | soluble
2 | MDWQNRFSVLNLSSHDPLPELMLTHLTGWGAITLVGADKKAYLQGQVTCNVVSLQEQQVTFGAHCDAKGKVWSVFRLFHHHDGYAMFQPQSAMEVELRELKKYAIFSKVTIAESSDIALGVMGSQADAWIDTVSETTGDVRRIAGGTAVRMSPQRWLLLVNAEQAEQYVNAWQGLHVEQSLWTRMDIEEAVPVVTQTAQNEHIPQALNVQAVDGISFTKGCYTGQETVARAKYRGINKRAMYIVKGNLSAPLSQDEPVVLERAVGENWRSAGALLTHYRFTDSIAIGLIVLPNDLEHDVKLRLAAQPDTRWHIQPLPYSLSDELEHHHHHH | soluble
3 | MDYDVLILGGGIIGCSIAYELSKYSLNVSLIEKEYEIGDDTSIVNSDLVYDGIESKYNFNYGLETEGNQEIEKICSVLSVPFKKVNAIVCSRDKENEDTINKIYSRGIKRGIKDASLANIESAIAKSIILKDINNKGIELKDIGIVCADDLALAYGEVAFDNGVNFRLNEKVIEIKKISKGFNVTTSKNKFTCKIVINTIPDASSPILVDGKEDKGSKKNISNLIYFVLDRKVKASLKHAIAVLSNKGDSTYIFRDFEDNIIVKIVTKDDCLYDEALDKLKAVIGDIEEEDIIYFYKSRFINDKIVITNKLDSDGYIKVQCKSYAISTVTPSISRNVGEAIVKNLNCKLKKEFYGRRREIYRFRDMSNKQRQKLIATNPDYGKIICRCNQVTEGEIIDSIRRPLGARTLNGIKRRTGVFNGECLGTCCIDKIVKILAKETNKSLTEVIKKTENSSIVKGRIKEFDEMLEHHHHHH | not soluble
4 | MDYNVKDFGALGDGVSDDRASIQAAIDAAYAAGGGTVYLPAGEYRVSAAGEPGDGCLMLKDGVYLAGAGMGETVIKLIDGSDQKITGMVRSAYGEETSNFGMRDLTLDGNRDNTSGKVDGWFNGYIPGGDGADRDVTIERVEVREMSGYGFDPHEQTINLTIRDSVAHDNGLDGFVADYLVDSVFENNVAYANDRHGFNVVTSTHDFVMTNNVAYGNGSSGLVVQRGLEDLALPSNILIDGGAYYDNAREGVLLKMTSDITLQNADIHGNGSSGVRVYGAQDVQILDNQIHDNAQAAAVPEVLLQSFDDTAGASGTYYTTLNTRIEGNTISGSANSTYGIQERNDGTDYSSLIDNDIAGVQQPIQLYGPHSTVSGEP | soluble
5 | MDYQLYTLPSGLHVVYKPHAGEVTYAGFAIGVGTRHESSRHHGLAHLTEHMLFKGTSLRNSLQIIRRMEEVGAELNAFTEKESTYVYCIFPKAHFNRATNLLFDIVQHSRFPEEELTKEKTVVIDEIDSYRDNPSELIFDEFENILFRHHPLGHNILGTEASVSRITGQIGRNFLRRHYRPDNMIFFLAGEADLSDWPLNPAEKVSIRNTDGTPLHTLREGFLPRTIRRHKDTYQHHILMGGPAYSLHDDRRIPLSLLNNILGGPGMNSRLNLSLREEHGYVYNVESNYTPYSDTGVFNIYLGCAPRYAEAAMELVRKELRYLIEHPLSPIELESAKRQFKGQLIVSADNKESTFLSLGKSMLLYGKYDPLSDIFHRIDAITSDRLREIAAEVLNPDSMLTLIYC | not soluble
6 | MEAEEIIGLLKKGDLEKAKDALSKEIDNLSDEELKEILEVAESVAKEKEDIELLKLVVYYYAEFFGIDKLEEFEGIAKEKGYEGLMHLADLYSLLGYPEKALDIYRELLKTDLIKEKEHIGEIYYGIATIHDELQEYDKALEAINEAVKAFKESNNVEKLHQAEVYRAYITFENGDRDKAKEILAGLLPHVTNREIKAQIHLVFKEIFEDEENYEAAIQESLYSLIEGIDTEVFDLAFDGLIDLIWELILEDKFEEIYKSMPMFKVAIPSLKDFFEGVRRIAMYREGKIGREEVSEILMKVKDERLVSILEFLGEAEV | soluble
7 | MEAGLDQSEIDERCECLKEVATSPAGRVLATDKQLDNLEQFISLVPGYIEKVRSHRVAVKAEEKRKAEEKRRQEEKEEEARKAREKQIEEERKAKEEQRANEERAKEERDRRALEVIVPPRQNSANSNINASVAFITNRLEMGSFSENNETVDRTIDTTATTVLSASSNAAQVDFVSFIKNSGEYLMVRKKKFPVDELVNNEKLGYPLGVTYDEKSKYWIICDRNLNKVLLMNVAESDVRVFEGPHLRNPTAVAVFEKGKSVVILCAPGNNQHVIYIYDFVDEIMHQFASHSDPLYNMKSQLRGLAISLGGNVLSLECSHAAAPKRLRIFKRDVGGKGFDIMGAKTPSFIASHNSKVAISDLGNNTVLIGNLIDTDWNKMSFSVLRIIETTQDLTLDQLANNNGFKFVSGMQFDTYGHLLIGDAKGHTIKLYDTDYKFLHRISSDFPLPYMSSFHISSSGEGIILDVHAQQKLHWVKMESIENITPWKAPPYQPKQSRENYQNRRF | not soluble
8 | MEANKREIVDFGGLRSYFFPNLAHYITKNDEELFNNTSQANKLAAFVLGASKDAPGDEDILEMILPNDANAAVIAAGMDVCLLLGDKFRPKFDAAAEKLSGLGHAHDLVSVIDDDKKLGMLARKAKLKKTEDAKILQALLKVIAIDDAAEKFVELTELVSQLDLDFDVYVLTKILGLISEETSDEVDIIRDNVVNAFDSCKPLLKQLMLDGPKSEPADPFISLLMDPLEESVGKVVNHIAQLFEEASKNEGDESLVLRSQLGYQLFFLIVRSLADGKREVSKKILSGIPTSVRAEVFPGLQRSVYKSAVFLGNHIIQVLLGSKKSFEDWDVVGVAKDLESAWKRRAIAELIKKFQVSILEQCFDKPVPLIPQSPLNNDAVIDNVNKALQFALWLTEFYGSENETEALGELRFLDSTSKNLLVDSFKKFVQGINSKTHVTRIVESLEKCCLSDTPSGRKSNVQPSTSQQQDSAYTKEEMTTVHNTYSVNTKAQVLNGLSDTNSSGLLVDSKDSLSLQEISCDEVDSSTLLSSSRNIGEGVTVKAVDPVPEKVNDAQQQQTVNEIEMASDANQDTSSSASPEVAPSFSTDGWDSPTKSVALPPGMQQIDEEETTVADKDSTPQPQARAETAWGSGDATPMPLPAPTNQYKVSGFGEAKVAKGFGQFAPTSSAYGGGGGRGGYGGGDRGGRGGYGGDRGGRGGYGGGDRGGRGGYGGDRGRGGYGGRGGRGGF | not soluble
9 | MEANMKKVIGAATATVFGLGAFTTTATAETIVTADVLNVREKPTTESKVVEKVKNGQELKVINTEDGWSKIELNGKEVFVSSEFTKDVYHVTANLLNVRTEANTDSEILGRLKKDDVIESTHQVKDGWLQFEYKGKTAYANVSFLSSTAPTEKKTEEKTKQVAKVQKSVKEKKEVKTQKVAKAKETTKAQEIVKPKEEAKVVKVKEEEKAQEIVKPKEEAKIKEEVKVKEEVKVKEEEKAQEIAKAKEEAKIKEEVKVKEEEKAQEIVKAKEEVKAKEEEKAQEIVKAKEEVKVKEEVKAKEIAKAKEEEKAREIAKAKEEEKAKEIAKAKEEEKAREIAKAKEEEKAREIAKAKEEEKAREIAKAKEEEKAREIAKAKEEERAKEASKNNIQSAKRELTVVATAYTADPSENGTYGGRVLTAMGHDLTANPNMRIIAVDPKVIPLGSKVWVEGYGEAIAGDTGSAIKGNRIDVLMGSKSKAMNWGRQTVKVKILLEHHHHHH | not soluble
10 | MEAPLYPDLPPDLCAPRGGQPAFWVGPRHLAGDDGRLYDVVADALAGLGWTSLTIVRGRHEPDEEPEDRQVLRSTVLHISPDALRWAQWCAADEPFHLGGLPIAWQISVRAEVSSPLAQWSAYFTRDVPGEAVVDFLVALDASNQPAVSLAGAELVLDAVAAHGWFRDIDQPEAVATDPAFTSHISLGEVPPLIQDGDLRVLSAEDDETGPDGWQAWAEPVLGAPLLWVASFAASVPHDLVAAFAASLSSTAPVLRRVLPEATHERLLRAPAILEHHHHHH | not soluble
11 | MEARFAELLAAYCLEAQSGETVLVEAETPALPLLPHLKRALLRRGAYPLIRLSYPGEERDFLLFGGRWLEEVPEAELALYQRADKFLRVLSAENPLEAAAVDPALALRRQRAWRLLQEIRLGKRWALTLYPTVGYAVGAGMGTEEFRAYLERALFLDREDPVAAWQELSRFQEGLIRRLSAAKELRILAPGTDLRLSVAGRTWVNSDGRRNMPSGEVFTGPVEDSAEGEVRFNLPAFVGGRRVKGVYLRFARGQVVKARAKAGKAYLQAALATDEGARRLGEVGIGTNFALDRPTGLVLLDEKMGGTVHLALGRSYPEAGGRNESALHWDLVLSLREGRLLLDGTPLLEAGRFL | soluble
12 | MEAVAEHDFQAGSPDELSFKRGNTLKVLNKDEDPHWYKAELDGNEGFIPSNYIRMTECNWYLGKITRNDAEVLLKKPTVRDGHFLVRQCESSPGEFSISVRFQDSVQHFKVLRDQNGKYYLWAVKFNSLNELVAYHRTASVSRTHTILLSDMNVETKFVQALFDFNPQESGELAFKRGDVITLINKDDPNWWEGQLNNRRGIFPSNYVCPYNSNKSNSNVAPGFNFGN | not soluble
13 | MEDFKSGDLILGYYKVLEKLGEGNFGKVYKVEALKGRYKGKVFALKVASNPYSVHYLWKEAQTLILFHHQNIVSLQSYLYKKDKKELYLIYEYMDFGTLKDYVEKKGKLSPEEALKVLRHVVNALEYLHSRGYIHSDLKPENVFGKRVLGGVLWKLGDFSLVRIRGDVSIIDVKGTIGFIAPEIFRGEIHRSSDIYSLGCLTLYMLTGKVPFEGKDFKERKEKNKRGEVEIPEEIPGKLKDLLERMLEVDYKRRFRTARELKEYMVKEGLI | soluble
14 | MEDLQLQVTMRDFLDALTEVEPSATREFAMEIPTATWEDIGGLEKIKERLQAMVEWPLRYPELFQQFGLQTPKGILLSGPPGTGKTLVAKALARESGINFIPVNSSLLFSHWWGEAEKTLHEVFRKARQASPCLLFFDELDALVPARKAGEGSSIGSRLVSQFLMELDGLEELREVIVLGATNRIDMIDPAVLRPGRFDQILEFPYPDQAARKEIFQIYLRNRPVDPGINLDSLAGAAEGLVGSEIEALCKRAALLAVSEVINHKGAGAYIKTCHLEQALAEIQAEKQQARTGAENHTLRPVWNNVVPGAISQVGRLEHHHHHH | soluble
15 | MEEARLLVTCPDRPGIVAAVSGFLYAHGANITDLQQHSTDPEGGTFFMRVAFTASHLDLARPALERAFQEVVASRFQMQWRLAYASERKRTAILVSKPAHALLELLWRYRVGELPMELRLVISNHPDHREEVERFGIPYHHVPVEKGRKEEAEERILALLEAEGVELVVLARYMQILSPGFVERFPMRIINIHHSFLPAFAGADPYRQAYERGVKLIGATAHYVTEELDQGPIIEQDVVRVSHRHSVREMKRLGRELERTVLARAVRWHLEDRILVHENRTVVFV | soluble
16 | MEEELQHSHCVNCVSRRCMTRPEPGISCDLIGCPLVCGAVFHSCKADEHRLLCPFERVPCLNSDFGCPFTMARNKVAEHLEMCPASV | soluble

From the DeepSol protein solubility set
